{"source": "patent US11155602B2", "about": "“Polypeptides targeting HIV fusion” (priority 2015, dated 2021)", "molecules": {"B1": {"name": "134 (protein)", "chain": "MGHHHHHHGGSVSDVPRDLEVVAATPTSLLISWDAPAVTVEQYYIAYYDEKEPSSYQYFRVPGSKSTATISGLKPGVEYAIFVNAVTRSGVLPEFSLPISINYRTEGS", "modifications": "Adnectin"}, "B2": {"name": "302 (protein)", "chain": "MGHHHHHHGGSVSDVPRDLEVVAATPTSLLISWEYKVHPYRYYRITYGETGGNSPVQEFTVPSVLSSATINGLKPGVDYTITVYAVTYGDDSAPISINYRTEID", "modifications": "Adnectin"}, "B3": {"name": "304 (protein)", "chain": "MGHHHHHHGGSVSDVPRDLEVVAATPTSLLISWEYKVAHDRYYRITYGETGGNSPVQEFTVPSVLSTATISGLKPGVDYTITVYAVTYGDDSAPISINYRTEID", "modifications": "Adnectin"}, "B4": {"name": "320 (protein)", "chain": "MGHHHHHHGGSVSDVPRDLEVVAATPTSLLISWEYKVTTWRYYRITYGETGGNSPVQEFTVPSVLSTATISGLKPGVDYTITVYAVTYGDDSAPISINYRTEID", "modifications": "Adnectin"}, "B5": {"name": "315 (protein)", "chain": "MGHHHHHHGGSVSDVPRDLEVVAATPTSLLISWEYKVDRWRYYRITYGETGGNSPVQEFTVPSVLSTATISGLKPGVDYTITVYAVTYGDDSAPISINYRTEID", "modifications": "Adnectin"}, "B6": {"name": "314 (protein)", "chain": "MGHHHHHHGGSVSDVPRDLEVVAATPTSLLISWEYKVAYKRYYRITYGETGGNSPVQEFTVPSVLSTATISGLKPGVDYTITVYAVTYGDDSAPISINYRTEID", "modifications": "Adnectin"}, "B7": {"name": "309 (protein)", "chain": "MGHHHHHHGGSVSDVPRDLEVVAATPTSLLISWEYKVHPYRYYRITYGETGGNSPVQEFTVPSVLSTATISGLKPGVDYTITVYAVTHGDDSAPISINYRTEID", "modifications": "Adnectin"}, "B8": {"name": "323 (protein)", "chain": "MGHHHHHHGGSVSDVPRDLEVVAATPTSLLISWEYKVHPYRYYRITYGETGGNSPVQEFTVPSVLSTATISGLKPGVDYTITVYAVTYGDQSAPISINYRTEID", "modifications": "Adnectin"}, "B9": {"name": "307 (protein)", "chain": "MGHHHHHHGGSVSDVPRDLEVVAATPTGLLISWEYKVHPYRYYRITYGETGGNSPVQEFTVPSVLSTATISGLKPGVDYTITVYAVTYGDDSAPISINYRTEID", "modifications": "Adnectin"}, "B10": {"name": "316 (protein)", "chain": "MGHHHHHHGGSVSDVPRDLEVVAATPTSLLISWEYAVHPYRYYRITYGETGGNSPVQEFTVPSVLSTATISGLKPGVDYTITVYAVTYGDDSAPISINYRTEID", "modifications": "Adnectin"}, "B11": {"name": "310 (protein)", "chain": "MGHHHHHHGGSVSDVPRDLEVVAATPTSLLISWEYKVHPYRYYRITYGETGGNSPVQEFTVPSVLSTATINGLKPGVDYTITVYAVTYGDDSAPISINYRTEID", "modifications": "Adnectin"}, "B12": {"name": "319 (protein)", "chain": "MGHHHHHHGGSVSDVPRDLEVVAATPTSLLISWEYKVSHGRYYRITYGETGGNSPVQEFTVPSVLSTATISGLKPGVDYTITVYAVTYGDDSAPISINYRTEID", "modifications": "Adnectin"}, "B13": {"name": "306 (protein)", "chain": "MGHHHHHHGGSVSDVPRDLEVVAATPTSLLISWEYKVDYRRYYRITYGETGGNSPVQEFTVPSVLSTATISGLKPGVDYTITVYAVTYGDDSAPISINYRTEID", "modifications": "Adnectin"}, "B14": {"name": "312 (protein)", "chain": "MGHHHHHHGGSVSDVPRDLEVVAATPTSLLISWEYKVHPYRYYRITYGETGGNSPVQEFLVPSVLSTATISGLKPGVDYTITVYAVTYGDDSAPISINYRTEID", "modifications": "Adnectin"}, "B15": {"name": "305 (protein)", "chain": "MGHHHHHHGGSVSDVPRDLEVVAATPTSLLISWEYKVDPYRYYRITYGETGGNSPVQEFTVPSVLSTATISGLKPGVDYTITVYAVTYGDDSAPISINYRTEID", "modifications": "Adnectin"}, "B16": {"name": "318 (protein)", "chain": "MGHHHHHHGGSVSDVPRDLEVVAATPTSLLISWEYKVNGYRYYRITYGETGGNSPVQEFTVPSVLSTATISGLKPGVDYTITVYAVTYGDDSAPISINYRTEID", "modifications": "Adnectin"}, "B17": {"name": "317 (protein)", "chain": "MGHHHHHHGGSVSDVPRDLEVVAATPTSLLISWEYKVNAYRYYRITYGETGGNSPVQEFTVPSVLSTATISGLKPGVDYTITVYAVTYGDDSAPISINYRTEID", "modifications": "Adnectin"}, "B18": {"name": "313 (protein)", "chain": "MGHHHHHHGGSVSDVPRDLEVVAATPTSLLISWEYKVAHGRYYRITYGETGGNSPVQEFTVPSVLSTATISGLKPGVDYTITVYAVTYGDDSAPISINYRTEID", "modifications": "Adnectin"}, "B19": {"name": "303 (protein)", "chain": "MGHHHHHHGGSVSDVPRDLEVVAATPTSLLISWEYKVHPYRYYRITYGETGGNSPVQEFKVPSVLSTATISGLKPGVDYTITVYAVTYGDDSAPISINYRTEID", "modifications": "Adnectin"}, "B20": {"name": "308 (protein)", "chain": "MGHHHHHHGGSVSDVPRDLEVVAATPTSLLISWEYKVNAWRYYRITYGETGGNSPVQEFTVPSVLSTATISGLKPGVDYTITVYAVTYGDDSAPISINYRTEID", "modifications": "Adnectin"}, "B21": {"name": "322 (protein)", "chain": "MGHHHHHHGGSVSDVPRDLEVVAATPTSLLISWEYKVHPYRYYRITYGETGGNSPVQEFTVPSVLSTATISGLKPGVDYTITVYAVTYGTDSAPISINYRTEID", "modifications": "Adnectin"}, "B22": {"name": "133 (protein)", "chain": "MGHHHHHHGGSVSDVPRDLEVVAATPTSLLISWEYKVHYDRYYRITYGETGGNSPVQEFTVPSVLSTATISGLKPGVDYTITVYAVTYGVDSDPISINYRTEID", "modifications": "Adnectin"}, "B23": {"name": "311 (protein)", "chain": "MGHHHHHHGGSVSDVPRDLEVVAATPTSLLISWEYKVHPYRYYRITYGETGGNSPVQEFTVPSVLSTAEISGLKPGVDYTITVYAVTYGDDSAPISINYRTEID", "modifications": "Adnectin"}, "B24": {"name": "321 (protein)", "chain": "MGHHHHHHGGSVSDVPRDLEVVAATPTSLLISWEYKVHPYRYYRITYGETGGNSPVQEFTVPSVLSSAXLSGLKPGVDYTITVYAVTYGDDSAPISINYRTEID", "modifications": "not fully specified"}, "B25": {"name": "301 (protein)", "chain": "MGHHHHHHGGSVSDVPRDLEVVAATPTSLLISWEYKVHPYRYYRITYGETGGNSPVQEFTVPSVLSTATISGLKPGVDYTITVYAVTHGDDFAPISINYRTEMLI", "modifications": "Adnectin"}}}
{"system": "NL-Rluc virus", "assay": "Combinectin potency assay: antiviral EC50, NL-Rluc virus in MT-2 cells, luciferase readout", "assay_type": "cell-based, HIV-1", "settings": "Anti-N17 Adnectin, Table 3", "outline": "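MT-2 cells infected with replication-competent NL-Rluc HIV (nef replaced by Renilla luciferase) at MOI 0.01 for 1 h, then added to threefold-diluted peptides (11 concentrations, triplicate). After 4–5 days, luciferase measured by Dual Luciferase; EC50 relative to no-peptide wells.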", "units": {"EC50": "nM"}}
{"molecule": "B1", "EC50": 5}
{"molecule": "B2", "EC50": 4}
{"molecule": "B3", "EC50": "> 1000"}
{"molecule": "B4", "EC50": "> 1000"}
{"molecule": "B5", "EC50": "> 1000"}
{"molecule": "B6", "EC50": "> 1000"}
{"molecule": "B7", "EC50": "> 1000"}
{"molecule": "B8", "EC50": 126}
{"molecule": "B9", "EC50": 205}
{"molecule": "B10", "EC50": 331}
{"molecule": "B11", "EC50": 62}
{"molecule": "B12", "EC50": "> 1000"}
{"molecule": "B13", "EC50": "> 1000"}
{"molecule": "B14", "EC50": 37}
{"molecule": "B15", "EC50": 83}
{"molecule": "B16", "EC50": "> 1000"}
{"molecule": "B17", "EC50": "> 1000"}
{"molecule": "B18", "EC50": "> 1000"}
{"molecule": "B19", "EC50": 109}
{"molecule": "B20", "EC50": "> 1000"}
{"molecule": "B21", "EC50": 96}
{"molecule": "B22", "EC50": 42}
{"molecule": "B23", "EC50": 42}
{"molecule": "B24", "EC50": 55}
{"molecule": "B25", "EC50": "> 1000"}
